According to patent US11230579B2, “Method of treating BCL-2 over-expressing disorders using arts containing a BH3-like domain” (CARMEL-HAIFA UNIVERSITY ECONOMIC CORPORATION LTD., priority 2012, dated 2022):

Legend:
[1] = biological target: T1, XIAP (Homo sapiens, UniProt P98170); assay: Bimolecular Fluorescence Complementation (BiFC) with flow cytometry, ARTS and XIAP; assay type: binding; set-up: expressed in transfected cells; host or cells: HeLa; conditions: living cells, 30 minutes after apoptotic induction, data not shown
T1 sequence (P98170 whole entry, the tested form may be a part): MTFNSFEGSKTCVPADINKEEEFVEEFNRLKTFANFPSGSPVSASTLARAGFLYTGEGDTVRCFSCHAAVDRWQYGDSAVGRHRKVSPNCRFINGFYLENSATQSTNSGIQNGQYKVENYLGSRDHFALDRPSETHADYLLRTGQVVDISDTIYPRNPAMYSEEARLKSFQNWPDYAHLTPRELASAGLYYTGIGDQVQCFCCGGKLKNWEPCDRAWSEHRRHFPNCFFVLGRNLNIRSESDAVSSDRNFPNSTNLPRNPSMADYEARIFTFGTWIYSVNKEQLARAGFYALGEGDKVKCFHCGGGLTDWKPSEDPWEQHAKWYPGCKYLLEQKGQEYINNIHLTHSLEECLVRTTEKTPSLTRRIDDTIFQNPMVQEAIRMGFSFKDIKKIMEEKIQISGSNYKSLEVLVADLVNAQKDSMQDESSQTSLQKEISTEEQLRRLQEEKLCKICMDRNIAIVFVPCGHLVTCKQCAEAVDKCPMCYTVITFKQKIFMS
From the text: (§1) The Bimolecular Fluorescence Complementation (BiFC) assay, provides a simple and direct way to visualize protein-protein interactions in real-time and in living cells. The method is based on formation of a fluorescent complex through the association of two fragments of a fluorescent protein, brought together by an interaction between proteins fused to the fragments. This method is especially attractive because the Green fluorescent protein (GFP) or Yellow fluorescent protein (YFP) chromophore forms spontaneously on protein folding in virtually every cell type tested (Kerppola, 2006).
(§2) Direct binding between [ARTS and Bcl-2] and [XIAP and Bcl-2] was examined using the BiFC system. […]
(§3) Transfection was performed using 200 ng of each plasmid together with 50 ng of pdsRED plasmid which served as control for transfection efficiency. […] Flow cytometry analyses of cell suspensions were performed using a fluorescence-activated cell sorter (FACSCantoII; BD Biosciences) equipped with an argon laser emitting at 488 nm. […] Results were analyzed using […] software (BD Biosciences). A ratio between YFP fluorescence and Red fluorescence was calculated for each time point.
(§4) To further investigate the binding relationships within this complex, the split-Venus, Bimolecular Fluorescence Complementation (BiFC) system was used. […]

[2] = test system: Bcl-2; assay: Over-expression of ARTS in COS-7 cells, Bcl-2 levels by Western blot and densitometry; assay type: cell-based; conditions: COS-7 cells, transient transfection
From the text: For transient transfections jetPEI™ (Polyplus Transfection) and Transfectol (GeneChoice) reagents were used according to the manufacturers' instructions.
To determine whether ARTS promotes apoptosis by regulating the levels of Bcl-2, the inventors first over-expressed ARTS in COS-7 cells. More specifically, COS-7 cell were transiently transfected with ARTS, Bcl-2 or empty vector or co-transfected with both constructs.

[3] = test system: Bcl-2; assay: IP with anti ARTS antibody in HeLa wt cells, Bcl-2; assay type: binding, human
Protocol: (§5) Co immunoprecipitation was performed as previously described (Gottfried et al., 2004). Briefly, 10 μg of anti-ARTS antibody or 2 μg of anti-Bcl-2 or anti-XIAP antibody were added to the protein lysate and the samples were left rotating overnight at 4° C. On the following day, agarose beads conjugated to protein A/G (Santa Cruz) were added for 4 h. Samples were centrifuged at 4000 rpm, 4° C. for 5 min and washed three times with PBS. Proteins were eluted from beads following 5 min of boiling in sample buffer and separated on 12.5% SDS-PAGE gel, followed by Western blot analysis.
(§6) Further, HeLa wt cells were treated with ABT-263 25 μM for 24 h. 750 μg of total proteins were subjected to Immunoprecipitation (IP) assay using monoclonal mouse anti ARTS Antibody (Ab). Western Blot analysis was performed using Bcl-2, Bcl-xL, ARTS and Actin antibodies. […] This binding is still seen after 24 hours of treatment with ABT-263. The decrease in binding may be the result of lower levels of Bcl-2 and Bcl-xL known to be strongly degraded after 24 hours of apoptosis.

[4] = biological target: Bcl-XL (Homo sapiens, UniProt Q07817); assay: IP with anti ARTS antibody in HeLa wt cells, Bcl-xL; assay type: binding; set-up: endogenous in cells; host or cells: HeLa wt cells
Chain of Bcl-XL (Q07817 whole entry): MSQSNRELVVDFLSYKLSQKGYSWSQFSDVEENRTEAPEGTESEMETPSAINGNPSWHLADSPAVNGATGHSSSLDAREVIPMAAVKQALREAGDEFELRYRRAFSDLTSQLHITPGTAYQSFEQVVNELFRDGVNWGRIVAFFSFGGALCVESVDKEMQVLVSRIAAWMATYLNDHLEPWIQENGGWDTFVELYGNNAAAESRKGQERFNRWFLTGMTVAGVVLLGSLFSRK
Protocol: as §5, §6

[5] = test system: Bcl-2; assay: Bimolecular Fluorescence Complementation (BiFC) with flow cytometry, ARTS and Bcl-2; assay type: binding, human; conditions: living cells, 30 minutes after apoptotic induction, data not shown
From the text: as §1, §2, §3, §4

[6] = biological target: T2, XIAP and Bcl-2 (Homo sapiens, UniProt P10415+P98170); assay: Pull-down of myc-XIAP in COS-7 cells co-transfected with ARTS, flag-Bcl-2 and myc-XIAP; assay type: binding
T2 construct: expressed in transfected cells; host or cells: COS-7
T2 sequence (P98170 whole entry): as the sequence (P98170 whole entry, the tested form may be a part) above
T2 sequence (P10415 whole entry): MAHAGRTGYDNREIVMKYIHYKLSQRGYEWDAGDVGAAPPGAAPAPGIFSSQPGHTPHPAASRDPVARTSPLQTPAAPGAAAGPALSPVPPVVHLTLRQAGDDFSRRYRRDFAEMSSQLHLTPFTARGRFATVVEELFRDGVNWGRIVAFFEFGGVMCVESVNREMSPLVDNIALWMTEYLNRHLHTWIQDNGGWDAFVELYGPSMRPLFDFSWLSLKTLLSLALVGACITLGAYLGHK
Protocol: (§7) COS-7 cells were co-transfected with different constructs as detailed herein. The cells were lysed in RIPA buffer (150 mM NaCl, 50 mM Tris-HCl (pH 8), 1% NP-40, 0.5% deoxycholate acid containing protease inhibitors (mini Complete, Roche)). The samples were left rotating overnight at 4° C. with the anti-Myc-beads (Santa Cruz). Samples were centrifuged at 4000 rpm, 4° C. for 5 min and washed four times in PBS. Proteins were eluted from beads following 5 min of boiling in sample buffer. Proteins were separate on 12.5% SDS-PAGE gel, followed by Western blot analysis.
Further understanding and evaluation of the relative contribution of ARTS to the formation of a complex with Bcl-2 and XIAP was obtained by over-expressing ARTS, Bcl-2, and XIAP alone or all together in COS-7 cells, which contain relatively small amounts of endogenous ARTS.
FIGS. 5A and 5B show results of COS-7 cells (pull down and lysates) transiently co-transfected with combinations of ARTS, flag-Bcl-2, and myc-XIAP constructs. Pull-down of XIAP was performed using anti-myc beads, and the precipitate was subjected to western blot analyses. […] This weak binding was attributed to the presence of low endogenous levels of ARTS in these COS-7 cells resulting in almost no formation of the complex.

[7] = test system: Bcl-2; assay: Myc beads pull-down of ARTS and Bcl-2 in co-transfected COS-7 cells; assay type: binding; conditions: COS-7 cells co-transfected with Bcl-2 and ARTS
Protocol: as §7
The mechanism by which ARTS regulates Bcl-2 levels was further tested using a pull-down assay in COS-7 cells which were co-transfected with Bcl-2 and ARTS expression vectors. Pull-down assays were performed using agarose anti-myc beads followed by Western blot analysis using mouse anti-ARTS and anti-Bcl-2 antibodies.

[8] = test system: Bcl-2 and XIAP; assay: Immunoprecipitation with anti-ARTS monoclonal antibody in HeLa, BT-549 and COS-7 cells; assay type: binding; conditions: BT-549 and 6-Myc-ARTS transfected COS-7 cells
Protocol: as §5

[9] = test system: Bcl-2; assay: Functional-structural pull-down assay with anti Bcl2 antibody in transfected HeLa cells; assay type: binding, human; conditions: pull-down with Bcl-2 antibodies
Protocol: HeLa cells were transiently transfected with Full length ARTS plasmid and 128 amino acids N′ terminus deletion of ARTS plasmid, for 24 hrs. The cells were extracted using RIPA-SDS lysis buffer. Immunoprecipitation was done by incubation of lysates overnight with anti Bcl2 antibody (BD), followed by precipitation done with protein A/G beads (Santa Cruz). Western blot analysis was performed using monoclonal anti ARTS antibody directed against its unique C terminus (Sigma).
In order to identify the Bcl-2 binding domain in ARTS, the inventors examined whether deletion of different fragments of ARTS, namely, the N-terminal 128 amino-acid residues may have an effect. Therefore, pull-down experiments were performed in HeLa cells transfected with either the full length ARTS or a deletion mutant thereof.

[10] = biological target: T1, XIAP; conditions: in vitro and in vivo; cited from earlier work

binding to XIAP (BiFC fluorescence) [1]: Strong binding
binding to Bcl-xL in living cells [4]: binds
binding to Bcl-2 (BiFC fluorescence) [5]: Strong binding
ability of XIAP to bind to Bcl-2 on over-expression of ARTS [6]: significantly increased
B1: ARTS: septin-like mitochondrial protein; human ARTS of 274 amino acid residues, GenBank Accession No. AF176379 (protein, listed as Homo sapiens)
chain: MIKRFLEDTTDDGELSKFVKDFSGNASCHPPEAKTWASRPQVPEPRPQAPDLYDDDLEFRPPSRPQSSDNQQYFCAPAPLSPSARPRSPWGKLDPYDSSEDDKEYVGFATLPNQVHRKSVKKGFDFTLMVAGESGLGKSTLVNSLFLTDLYRDRKLLGAEERIMQTVEITKHAVDIEEKGVRLRLTIVDTPGFGDAVNNTECWKPVAEYIDQQFEQYFRDESGLNRKNIQDNRVHCCLYFISPFGHGYGPSLRLLAPPGAVKGTGQEHQGQGCH
Bcl-2 levels on over expression [2]: reduction in Bcl-2 levels
binding to Bcl-2 in living cells [3]: binds
complex with Bcl-2 [7]: forms a complex with Bcl-2
complex of ARTS, Bcl-2 and XIAP [8]: form a complex
binding to Bcl-2 [9]: binds to Bcl-2
binding to XIAP [10]: binds directly to XIAP
